Our source for the Kd values is PMC11939060.

Like-named read-outs stand apart in the source and are kept apart here.

What all share (assay): fluorescence polarization
For data set [1], the target named is T1, DNMT3B Δ214 (3BΔ214);DNMT3L CLD (3L) (human;human?, UniProt Q9UBC3;Q9UJW3 215-853;179-379, |).
The target in a further data set is DNMT3B PWWP K268A (human, UniProt Q9UBC3 206-355, K268A).
The next data set has as its target DNMT3B PWWP domain (human, UniProt Q9UBC3 206-355).
Data set [2] deals with T1, DNMT3B Δ214 (3BΔ214);DNMT3L CLD (3L). The source holds these as a separate data set.
For data set [3] the target is unchanged. The source holds these as a separate data set.
The target is the same in data set [4]. The source holds these as a separate data set.
Data set [5] has the same target. The source holds these as a separate data set.

T1 sequence (Q9UJW3 179-379, stated change not applied, chain 2 of 2, other chains not shown): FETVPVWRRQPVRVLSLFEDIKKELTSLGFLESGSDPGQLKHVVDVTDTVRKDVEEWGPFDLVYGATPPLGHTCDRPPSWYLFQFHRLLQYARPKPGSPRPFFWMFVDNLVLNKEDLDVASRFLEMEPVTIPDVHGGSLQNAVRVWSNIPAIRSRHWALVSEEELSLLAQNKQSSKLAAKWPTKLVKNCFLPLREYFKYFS

B1: 30-bp FAM dsDNA (dsDNA)
DNA 1: CTGAATACTACTTGCGCTCTCTAACCTGAT
DNA 2: ATCAGGTTAGAGAGCGCAAGTAGTATTCAG
On to B1, for which the Kd in data set [1] turned out to be 0.85 ± 0.07 µM; with DNMT3B PWWP K268A, 24.3 ± 2 µM; with DNMT3B PWWP domain, 9.12 ± 0.67 µM; in data set [2], 3.5 ± 0.3 µM; in data set [3] it was 1.39 ± 0.12 µM; in data set [4], 2.34 ± 0.15 µM. Moreover, the affinity in data set [5], expressed as Kd, was 3.51 ± 0.28 µM.
